Results on 4 substances are retold here after patent publication US20240240159A1.

Common to all, as to assay: cell-based or functional assay
In assay [1] the target is 358HNL-H1 epitope-grafted FAD-GDH.
Assay [2] addresses 358HNL-H3 epitope-grafted FAD-GDH.
Assay [3] concerns the target Purified NTproBNP antigen (UniProt P16860).
Assay [4] has as its target 341BP NTproBNP epitope-grafted FAD-GDH.
Assay [5] concerns the target 358BP NTproBNP epitope-grafted FAD-GDH.
Assay [6] addresses 341V5 epitope-grafted FAD-GDH.
For assay [7], the target named is V5 peptide, Sigma (cat #V7754-4MG).

358BP NTproBNP epitope-grafted FAD-GDH, sequence (chain, as listed by the source): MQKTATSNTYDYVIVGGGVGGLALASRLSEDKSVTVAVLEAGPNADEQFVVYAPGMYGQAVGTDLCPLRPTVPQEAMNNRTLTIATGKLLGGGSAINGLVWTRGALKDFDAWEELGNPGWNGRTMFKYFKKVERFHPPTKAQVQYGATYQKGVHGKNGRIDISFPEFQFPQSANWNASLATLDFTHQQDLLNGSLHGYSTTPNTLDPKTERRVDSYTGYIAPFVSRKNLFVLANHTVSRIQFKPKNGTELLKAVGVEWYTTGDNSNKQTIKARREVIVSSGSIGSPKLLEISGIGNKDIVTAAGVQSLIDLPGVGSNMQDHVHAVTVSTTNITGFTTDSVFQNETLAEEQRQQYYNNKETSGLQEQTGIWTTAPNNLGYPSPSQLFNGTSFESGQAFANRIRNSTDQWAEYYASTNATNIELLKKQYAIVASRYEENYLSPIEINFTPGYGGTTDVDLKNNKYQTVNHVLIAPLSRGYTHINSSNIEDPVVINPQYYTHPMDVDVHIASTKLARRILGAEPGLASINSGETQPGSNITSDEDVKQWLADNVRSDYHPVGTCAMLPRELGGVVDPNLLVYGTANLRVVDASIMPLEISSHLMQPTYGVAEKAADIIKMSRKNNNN
UniProt P16860, sequence (P16860 27-134 limits assumed): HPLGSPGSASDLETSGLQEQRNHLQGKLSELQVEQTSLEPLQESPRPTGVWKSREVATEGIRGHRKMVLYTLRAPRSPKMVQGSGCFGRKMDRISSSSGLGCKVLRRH
358HNL-H3 epitope-grafted FAD-GDH, sequence (chain, as listed by the source): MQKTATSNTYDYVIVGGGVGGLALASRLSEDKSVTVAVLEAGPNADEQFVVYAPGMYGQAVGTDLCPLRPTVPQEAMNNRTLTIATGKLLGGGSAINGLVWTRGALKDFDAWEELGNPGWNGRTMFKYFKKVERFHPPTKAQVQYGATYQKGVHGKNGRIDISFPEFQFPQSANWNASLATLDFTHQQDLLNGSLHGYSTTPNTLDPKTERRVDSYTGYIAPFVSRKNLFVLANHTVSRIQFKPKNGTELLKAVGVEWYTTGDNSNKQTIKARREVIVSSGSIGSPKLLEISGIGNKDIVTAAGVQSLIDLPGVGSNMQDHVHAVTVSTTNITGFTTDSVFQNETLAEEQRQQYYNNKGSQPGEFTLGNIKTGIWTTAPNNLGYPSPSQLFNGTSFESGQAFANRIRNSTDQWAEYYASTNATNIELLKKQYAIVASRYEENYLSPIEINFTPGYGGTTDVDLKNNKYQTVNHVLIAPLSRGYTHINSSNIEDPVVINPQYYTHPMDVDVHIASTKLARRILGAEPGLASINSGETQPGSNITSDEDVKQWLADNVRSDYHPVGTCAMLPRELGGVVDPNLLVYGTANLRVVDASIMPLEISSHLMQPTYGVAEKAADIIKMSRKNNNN
358HNL-H1 epitope-grafted FAD-GDH, sequence (chain, as listed by the source): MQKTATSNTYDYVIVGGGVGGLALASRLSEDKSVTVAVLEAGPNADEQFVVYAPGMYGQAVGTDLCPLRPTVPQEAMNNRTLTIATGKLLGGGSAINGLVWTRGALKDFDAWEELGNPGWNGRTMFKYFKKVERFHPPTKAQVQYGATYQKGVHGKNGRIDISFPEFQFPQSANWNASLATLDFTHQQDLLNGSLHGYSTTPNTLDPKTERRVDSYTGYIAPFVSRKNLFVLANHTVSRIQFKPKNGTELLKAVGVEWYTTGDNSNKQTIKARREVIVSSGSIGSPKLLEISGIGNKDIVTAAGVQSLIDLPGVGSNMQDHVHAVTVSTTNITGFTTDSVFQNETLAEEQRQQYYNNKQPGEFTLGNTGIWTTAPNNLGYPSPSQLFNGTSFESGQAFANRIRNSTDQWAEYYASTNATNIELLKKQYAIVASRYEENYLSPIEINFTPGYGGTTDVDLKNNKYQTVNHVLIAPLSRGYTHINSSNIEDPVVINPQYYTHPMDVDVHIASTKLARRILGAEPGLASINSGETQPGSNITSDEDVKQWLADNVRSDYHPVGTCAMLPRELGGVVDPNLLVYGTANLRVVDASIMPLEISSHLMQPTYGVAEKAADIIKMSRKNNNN
341BP NTproBNP epitope-grafted FAD-GDH, sequence (chain, as listed by the source): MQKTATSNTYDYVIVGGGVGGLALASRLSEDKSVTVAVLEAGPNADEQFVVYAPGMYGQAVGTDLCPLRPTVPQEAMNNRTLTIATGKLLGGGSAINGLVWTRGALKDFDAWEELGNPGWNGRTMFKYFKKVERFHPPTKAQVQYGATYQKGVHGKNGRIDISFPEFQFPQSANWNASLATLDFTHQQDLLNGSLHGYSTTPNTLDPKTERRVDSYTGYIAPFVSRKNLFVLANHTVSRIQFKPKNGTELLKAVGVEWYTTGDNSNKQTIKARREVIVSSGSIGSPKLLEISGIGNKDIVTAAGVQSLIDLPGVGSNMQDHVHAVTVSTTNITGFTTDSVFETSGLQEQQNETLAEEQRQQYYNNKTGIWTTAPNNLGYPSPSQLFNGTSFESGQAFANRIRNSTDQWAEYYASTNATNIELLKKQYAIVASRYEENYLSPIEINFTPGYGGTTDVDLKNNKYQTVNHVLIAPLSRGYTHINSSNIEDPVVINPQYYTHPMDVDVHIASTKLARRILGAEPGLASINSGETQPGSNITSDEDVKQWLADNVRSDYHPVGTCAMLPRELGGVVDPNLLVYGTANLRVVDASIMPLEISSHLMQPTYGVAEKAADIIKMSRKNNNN

With “Rabbit α-HNL mAb, Abcam (cat #ab206427) (antibody)”, the results for the percent inhibition of GDH activity, 25 nM antibody in assay [1] and in assay [2] were 20% and 60%, respectively.
As to “Mouse α-NTproBNP antibody, Biorad (cat #MCA2641)”, the percent inhibition of 341BP / 358BP by 500 nM antibody in the presence of 5 µM NTproBNP antigen in assay [3] stood at 0%. For the same substance, the percent inhibition of GDH activity, 500 nM antibody in assay [4] was found to be 25%; in assay [5], 7%.
Turning to “Mouse α-NTproBNP antibody, Novus (cat #NB200-439)”, the percent inhibition by 500 nM Novus antibody in the presence of 5 µM NTproBNP antigen in assay [3] is 0%. The percent inhibition of GDH activity, 500 nM antibody in assay [5] was 7%.
As to “α-V5 antibody, mouse monoclonal, Sigma (cat #V8012-50UG)”, the percent inhibition of GDH activity, 300 nM antibody in assay [6] was determined as 50%. The percent inhibition of 341V5 by 300 nM α-V5 antibody in the presence of 3 µM V5 peptide in assay [7] worked out at 9%.
